The text below walks through data of patent US20230094463A1, “ANTIBODIES THAT DISRUPT THE INTERACTION OF GAL3 AND INSULIN RECEPTOR OR INTEGRINS AND METHODS OF USE THEREOF” (TrueBinding, Inc., priority 2019, published 2023).

For assay [1], the system named is high-fat diet fed diabetic C57BL6J mice. Description: High-fat diet fed mouse model of type II diabetes. It is filed as in vivo. The note with it: HFD-fed mice; for liver steatosis (H&E stained liver sections): 10 mg/kg. From the text:
To evaluate whether Gal3-INSR blockade by Gal3-targeted antibodies functionally impacted diabetes biology, a mouse model of type II diabetes was employed. Male C57BL6J mice were purchased from Jackson Lab and fed with high fat diet (HFD, 60% kcal from fat, Research Diet, Catalog #12492i) starting from 7-week old for 8 weeks, 10 or 16 weeks. Age-matched male C57BL6J mice fed with standard chow diet were used as control mice. […] Mice were fed with standard chow diet or HFD ad libitum except when fasted as indicated in the experiments. Glucose tolerance test (GTT) and insulin tolerance test (ITT) were done at 15 weeks and 16 weeks old (8 weeks and 9 weeks after HFD), respectively, to confirm the insulin resistant and glucose intolerant phenotype. For GTT, mice were fasted for 6 hours by transferring mice to clean cage with no food or faeces but with drinking water and then injected with 2 g/kg glucose (Sigma) and blood was drawn to measure glucose levels at 0, 15, 30, 60, 90, and 120 minutes after glucose injection. For ITT, mice were fasted for 6 hours, and then injected with 0.75 IU/kg body weight of Humalin-R (Eli Lilly) intraperitoneally. Blood from the tail was measured for glucose content using HemoCue Glucose 201 Analyzer at 0, 15, 30, 45, 60 minutes. Based on area under the curve (AUC) from ITT, HFD fed mice were randomized into two groups: human IgG4 isotype group and IMT001-4 treated group. At 17 weeks of age, mice were given antibody treatments by intraperitoneal injection twice a week for 5 doses before ITT and GTT were done at 19 weeks old and 20 weeks old. Human IgG4 isotype and IMT001-4 were dosed at 10 mg/kg with 100 μl/mouse and BM was dosed at […] with 100 μl/mouse. Treatments continued until the mice were sacked at 21 weeks old. The mice body weight was monitored one week after the mice arrived at the facility. Body weight was measured once a week using a balance. Mouse blood was collected using cardiac puncture. Liver, gastrocnemius muscle, and posterior subcutaneous white adipose fat were collected and weighed.
To further evaluate the ability of IMT001-4 to impact the pathological sequalae of diabetes, liver sections from animals treated as in FIGS. 3-5 were examined for signs of fat accumulation, e.g., steatosis. Briefly, liver specimens were fixed in 4% paraformaldehyde for 24 hours, placed in 70% EtOH for 3 days, embedded into paraffin and 10 μm sections were cut and mounted to glass slides and stained with hematoxylin and eosin and visualized on a Revolve microscope at 40× magnification. Images were evaluated by ImageJ to quantitate the extent of steatosis.
To further characterize the liver disease observed in histological samples, serum markers of liver dysfunction were evaluated in animals treated as above […]. Briefly, mouse plasma samples were obtained from whole blood sample in lithium heparin collection tubes. 100 μl of serum was dispensed into the rotor of a VetScan VS2 Blood Chemistry Analyzer (Abaxis) through the sample port. ALT levels were determined as per the manufacturer's specification. […] Accordingly, the Gal3-targeted Gal3-INSR blocking antibody, IMT001-4, has utility in reducing serum liver enzymes.

The subject of assay [2] is DSS-induced IBD C57BL/6J mice. The assay is described as follows: DSS mouse model of chronic inflammatory bowel disease. The class given is in vivo. The note with it: 3% DSS mice, 10 mg/kg or 1 mg/kg. The method, then:
A mouse model of chronic inflammatory bowel disease was implemented to study the effect of Gal-3 antibodies. […] Mice were allowed to rest for one week before initiating the treatment.
Mice were randomized into the four treatment groups: no dextran sulfate sodium salt (DSS), 3% DSS in water+PBS, 3% DSS+mTB001 (10 mg/kg), 3% DSS+mTB001 (1 mg/kg). DSS water mixture was given for five consecutive days followed by seven days of normal water for a total of three DSS cycles and two normal water cycles. Body weight, stool consistency, gross bleeding score, and Hemoccult score (Fisher, SK-61130) were monitored daily. At necropsy, blood, colon, jejunum, ileum, duodenum, and spleen were preserved and flash frozen. Plasma Inflammatory cytokines were measured using Multi-spot Assay Systems (MSD) Proinflammatory Panel 1 (mouse) kit (MSD, K15048D). RT-qPCR was performed on frozen colon samples. Briefly, the colon tissue was disrupted using Qiazol lysis buffer (Qiagen, 79306) and the Qiagen Tissue Lyser II (Qiagen, 85300). RNA was extracted using RNeasy mini kit (Qiagen, 74104). cDNA was synthesized with iScript Reverse Transcription Supermix (BioRad, 1708841) at BioRad C1000 touch thermal cycler (BioRad, 1851138). […]

Assay [3] deals with HFD-fed Db/Db (Bks-Db) mice. Description: HFD-fed Db/Db mouse model of advanced type II diabetes.
Excerpt: In order to investigate the effect of therapeutic anti-GAL-3 antibodies on a severe case of type II diabetes, a mouse model using High Fat Diet (HFD)-fed Db/Db mice was implemented. Four-weeks-old male Bks-Db mice (000642) obtained from Jackson lab were fed with 60% kcal HFD (Research Diet, 12492i) for eight weeks. Control animals (male C57BL6/J (000662), Jackson lab) were fed normal chow diet. […] Animals were randomized based on the body composition measured by employing EchoMRI-500™ (EchoMRI). […] Wild type animals were used as a control (Healthy) group. The animals were dosed for twelve weeks. […] The fasting blood glucose was measured as described in Example 15. Briefly, the mice were fasted for 4-6 hours in clean cages with water and no food. Blood from the tail was diluted 2.5 times before using HemoCue Glucose 201 Analyzer and cuvettes (Mercedes Scientific 110706) to measure the blood glucose level.
Where [4] appears, read: 10 mg/kg i.p. twice a week, vs isotype control.

B1: TB001: Gal3-targeted Gal3-INSR blocking anti-Gal3 antibody; IMT001-4 used with human IgG4 isotype control (antibody, V domains shown)
VH: QVQLVQSGSELKKPGASVKVSCKASGYTFTNYGMNWVRQAPGQGLKWMGWINTNTGEPTYVEEFTGRFVFSLETSVSTAYLQISSLKAEDTAVYFCAPYDNFFAYWGQGTTVTVSS
VL: DIVLTQSPLSLPVTPGEPASISCRSSKSLLYKDGKTYLNWFLQKPGQSPQLLIYLMSTHASGVPDRFSGSGSGTDFTLKISRVEAEDVGVYYCQQLVDYPLTFGGGTKLEIK
B1: the weight gain entry in assay [1] (10 mg/kg i.p. twice a week, 19 day study) was “did not gain any appreciable weight”. Also, the “liver steatosis (H&E stained liver sections)” value in assay [1] (10 mg/kg i.p. twice a week) is recorded as “negligible levels of steatosis”. Moreover, in assay [1] (10 mg/kg i.p. twice a week, listed as IMT001-4 (TB001)), the “liver steatosis (H&E stained liver sections)” value was “absence thereof”. Moreover, in assay [1] (setting [4]), the “glucose reduction in response to insulin challenge (insulin tolerance test)” value was “glucose clearance indistinguishable from non-diabetic mice fed a normal diet” and the “response to glucose challenge (glucose tolerance test)” value was “cleared glucose significantly more rapidly”. Also, the “serum liver enzyme ALT levels” value in assay [1] (relative to HFD-fed isotype-control treated mice) is “significantly decreased”. Besides, the “liver steatosis by image quantification (ImageJ)” value in assay [1] (relative to isotype-control treated animals) was “complete reversion of disease state”. Further, the “DSS-induced reduction in the colon length” value in assay [2] is listed as “restored”. For the same molecule, the “DSS-induced inflammation by circulating levels of IFN-gamma” value in assay [2] (plasma) is listed as “reduced DSS-induced inflammation”. Further, the “change in levels of fasting blood glucose” value in assay [3] (compared to PBS-treated groups) is recorded as “lack of change”. In assay [3] (dosed once weekly for twelve weeks), the survival entry was “significantly prolonged survival”.
